Values joined by “and” are separate entries in the source; they are usually repeats but may differ in a detail not shown here. Equal entries are not always repeated.
Assays:
[1] = Integration of peptide with pH sensitive carrier: absorbance at 750 nm (Lowry kit), 0.22-μm filtration; assay type: physicochemical; conditions: for peptide-derived absorbance: mixed liquid with the pH sensitive carrier at a neutral pH; for absorbance of the solution after filtration: pH lowered to obtain an aggregate of the pH sensitive carrier
Description: (§1) When a liquid including the complex obtained as described above is treated with a filter (for example, having a pore size of 0.22 μm), and the concentrations of the physiologically active substance before and after a filtration treatment are measured, the integration ratio of the physiologically active substance (proportion of the amount of the physiologically active substance incorporated into an aggregate of the pH sensitive carrier with respect to the total amount of the physiologically active substance added) can be checked. Here, the concentration of the physiologically active substance can be measured by any known method. Meanwhile, in the present specification, the integration efficiency of the physiologically active substance is defined as a value calculated by the following formula 3 based on the measurement of the absorbance before and after a filtration treatment. At this time, the absorbance may be measured at a wavelength corresponding to the absorption wavelength range of the physiologically active substance (for example, 280 nm in the case of a protein or a peptide, and 260 nm in the case of a nucleic acid). Alternatively, the liquid is colored using a commercially available quantification kit, and then the absorbance may be measured at a wavelength that is recommended by the protocol of the kit.
(§2) Integration efficiency of physiologically active substance (%)=[(Absorbance before filtration treatment−Absorbance after filtration treatment)/(Absorbance before filtration treatment)]×100 (Formula 3)
[…] and […] were used as peptides, and the concentration of the peptide was adjusted to 0.8 mg/mL. […] The pH at the time of preparing an aggregate of the pH sensitive carrier was adjusted to 4 using 1 N sulfuric acid. The time for standing was set to 2 hours. The mixed liquid was passed through a 0.22-μm filter, the liquid before and after filtration was colored using a peptide quantification kit (Lowry kit, manufactured by NACALAI TESQUE, INC.), and measurement of the absorbance at a wavelength of 750 nm was carried out.

[2] = Leaching test: leakage (membrane disruptive function); assay type: biochemical; conditions: sample not acid-aggregated
Description: Herein, the term “membrane disruptive function” means a function of causing leakage in a leaching test. Herein, the leaching test in the present specification is a test in which liposomes (dispersion) including an aqueous solution containing a quenching substance and a fluorescent substance, and an evaluation sample dispersion such as a solution containing a complex (aggregate of a pH sensitive carrier supporting a physiologically active substance) are added to an aqueous solution whose pH is adjusted to a predetermined level, followed by incubating the aqueous solution at 37° C. for 90 minutes or 30 minutes and measuring the fluorescence of the aqueous solution. According to this method, an amount of a fluorescent substance leached out from the liposomes can be measured, from which the liposome membrane disruptive function of the complex can be confirmed.
Herein, the expression “to develop a membrane disruptive function promoting effect” means to satisfy both of requirements (1) and (2): (1) in the leaching test, a leakage at a predetermined pH that is less than a physiological pH increases compared to a leakage at the physiological pH and the amount of increase is larger than the amount of increase in a case where the pH sensitive compound alone is subjected to the test; and (2) in the leaching test at a predetermined pH less than the physiological pH, a leakage of the complex is more than the sum of a leakage of the pH sensitive compound alone and a leakage of the amphipathic substance alone. More specifically, to develop a membrane disruptive function promoting effect means that, in the leaching test at a pH of 7.4 and at a pH of 5.0 or 4.5, a leakage Lc of the complex, a leakage La of the pH sensitive compound alone, and a leakage Lb of the amphipathic substance alone satisfy both the following relations. That is, the above (1) is represented by the following Formula (1) and the above (2) is represented by the following Formula (2). […]
3,000 nmol of EYPC (egg yolk phosphatidylcholine) dissolved in chloroform was measured and introduced into a 10-mL pear-shaped flask, and a thin film was produced using a rotary evaporator (BuCHI). […]
Meanwhile, the case of an EYPC liposome dispersion liquid only was designated as 0%, the value obtained in a case in which 30 μL of Triton-X100 diluted to ten time was added was designated as 100%, and the leakage was calculated.
Specifically, the leakage was calculated according to the following formula 4. In the following formula, the fluorescence intensity thus measured was designated as L, the fluorescence intensity of only the EYPC liposome dispersion liquid encapsulating a fluorescent substance was designated as L0, and the fluorescence intensity in the case of having Triton-X100 added thereto was designated as L100.

[3] = Integration of OVA with pH sensitive carrier: absorbance at 595 nm (CBB) before and after 0.22-μm filtration; assay type: physicochemical; conditions: for integration efficiency for OVA based on the change in the absorbance: DLPC 1,000 nmol in 1 mL
Description: as §1, §2
2. Next, separation of the protein was checked. PBS at pH 7.4 containing OVA was passed through a 0.22-μm filter similarly to the previous operation. The liquid before and after the filtration treatment was colored using a protein quantification kit (protein assay CBB solution, manufactured by NACALAI TESQUE, INC.), and measurement of the absorbance at a wavelength of 595 nm was performed. […] Meanwhile, the absorbance was converted to concentration using a calibration curve, and while the OVA concentration before filtration was 0.81 mg/mL, the OVA concentration after filtration was 0.79 mg/mL. The concentrations thus obtained were consistent with the feed concentration (FIG. 3B). It was confirmed that free OVA all escaped without being captured by the filtration. Therefore, it was considered that integration of the aggregate of the pH sensitive carrier and the protein can be evaluated by measuring the protein concentrations before and after passage through a filter (pore diameter 0.22 μm).
OVA was mixed with a dispersion liquid of the pH sensitive carrier, and a mixed liquid was prepared. Subsequently, the mixed liquid was passed through a filter by a test method similar to section 2. of Experiment 2, and the change in the absorbance (corresponding to the OVA concentration) before and after a filtration treatment was investigated. […]

[4] = aggregate of DLPC-deoxycholic acid carrier, pH 4, 2 hours
[5] = OVA 0.8 mg/mL, 1,000 nmol amphiphilic substance and 1,600 nmol pH sensitive compound in 1 mL, pH 4, 1 hour, listed as OVA only
[6] = PBS at pH 7.4, no carrier, from calibration curve

SIINFEKL
integration efficiency of the SIINFEKL peptide based on the change in absorbance [1, 4]: about 27%
peptide-derived absorbance [1]: 0.44
absorbance of the solution after filtration [1]: 0.32

RGPESRLL
peptide-derived absorbance ([1]; RGPESRLL): 1.40
absorbance of the solution after filtration ([1]; RGPESRLL): 0.82
integration efficiency of the RGPESRLL peptide based on the change in absorbance [1, 4]: about 41%

CCCCCCCCCCCC(=O)OC[C@H](COP(=O)([O-])OCC[N+](C)(C)C)OC(=O)CCCCCCCCCCC [DLPC alone, 1,2-dilauroyl-sn-glycero-3-phosphatidylcholine]
Leakage ([2]; leaching test at pH 5.0): 2.587% and 4.587%
Leakage ([2]; leaching test at pH 7.4): 1.188% and 2.688%

B1: OVA: Model protein: OVA (molecular weight 45 kDa, manufactured by Sigma-Aldrich Corp.) (protein, UniProt P01012 2-386, looked up)
Ovalbumin: GSIGAASMEFCFDVFKELKVHHANENIFYCPIAIMSALAMVYLGAKDSTRTQINKVVRFDKLPGFGDSIEAQCGTSVNVHSSLRDILNQITKPNDVYSFSLASRLYAEERYPILPEYLQCVKELYRGGLEPINFQTAADQARELINSWVESQTNGIIRNVLQPSSVDSQTAMVLVNAIVFKGLWEKAFKDEDTQAMPFRVTEQESKPVQMMYQIGLFRVASMASEKMKILELPFASGTMSMLVLLPDEVSGLEQLESIINFEKLTEWTSSNVMEERKIKVYLPRMKMEEKYNLTSVLMAMGITDVFSSSANLSGISSAESLKISQAVHAAHAEINEAGREVVGSAEAGVDAASVSEEFRADHPFLFCIKHIATNAVLFFGRCVSP
Absorbance after filtration (corresponding to the OVA concentration) [3, 5]: 0.651 and 0.533
Absorbance before filtration (corresponding to the OVA concentration) [3, 5]: 0.661 and 0.588
OVA concentration after filtration [3, 6]: 0.79 mg/mL
OVA concentration before filtration [3, 6]: 0.81 mg/mL
Absorbance at 595 nm before filtration ([3]; PBS at pH 7.4 containing OVA, no carrier): 0.616
Absorbance at 595 nm after filtration ([3]; PBS at pH 7.4 containing OVA, no carrier, 0.22-μm filter): 0.601
integration efficiency for OVA based on the change in the absorbance ([3]; carrier with deoxycholic acid 400 nmol/mL, pH 4): about 42%
integration efficiency for OVA based on the change in the absorbance ([3]; carrier with deoxycholic acid 1,600 nmol/mL, pH 4): about 60%
integration efficiency for OVA based on the change in the absorbance ([3]; carrier with deoxycholic acid 6,400 nmol/mL, pH 4): about 64%
